# Reference: patent publication US20240226274A1
# Where “and” joins values, the source holds several entries; their conditions need not be identical. Equal values may be shown once.
# Legend:
# [1] = target: RSV F design R-1b (respiratory syncytial virus (A2 strain)); experiment: BLI; antibody on Protein A sensor; F protein heated 1 h at 55 C
# [2] = target: RSV F DS-Cav1 (respiratory syncytial virus); experiment: as above
# [3] = target: RSV F design R-1b (respiratory syncytial virus (A2 strain)); experiment: BLI; antibody on Protein A sensor, F protein in solution; RT, not heated
# [4] = target: RSV F DS-Cav1 (respiratory syncytial virus); experiment: as above
# [5] = target: RSV F DS-Cav1 (respiratory syncytial virus); experiment: BLI; antibody on Protein A sensor; F protein heated 1 h at 60 C
# [6] = target: hMPV F design M-104 (human metapneumovirus) (UniProt Q6WB98); experiment: BLI; antibody on Protein A sensor; F protein heated 1 h at 55 C
# [7] = target: hMPV F 115-BV (human metapneumovirus) (UniProt Q6WB98); experiment: BLI; antibody on Protein A sensor, F protein in solution; RT, not heated
# [8] = target: hMPV F design M-104 (human metapneumovirus) (UniProt Q6WB98); experiment: as above
# [9] = target: postfusion RSV A2 F (respiratory syncytial virus A2) (UniProt P03420); experiment: as above
# [10] = target: postfusion RSV A2 F (respiratory syncytial virus A2) (UniProt P03420); experiment: BLI; antibody on Protein A sensor; F protein heated 1 h at 60 C
substance,measurement,setting,value
antibody AM14,Kd,[1],0.134 nM and 0.133 nM
same,koff,[1],1.15e-05 s⁻¹ and 1.31e-05 s⁻¹
same,kon,[1],88700 M⁻¹ s⁻¹ and 86300 M⁻¹ s⁻¹ and 99100 M⁻¹ s⁻¹
same,kon,[2],50300 M⁻¹ s⁻¹ and 58500 M⁻¹ s⁻¹ and 50100 M⁻¹ s⁻¹
same,Kd,[3],0.497 nM and 0.489 nM and 0.568 nM
same,koff,[3],0.000111 s⁻¹ and 0.000124 s⁻¹ and 0.000101 s⁻¹
same,kon,[3],203000 M⁻¹ s⁻¹ and 227000 M⁻¹ s⁻¹ and 219000 M⁻¹ s⁻¹
same,kon,[4],161000 M⁻¹ s⁻¹ and 204000 M⁻¹ s⁻¹ and 181000 M⁻¹ s⁻¹
antibody D25,kon,[1],156000 M⁻¹ s⁻¹ and 120000 M⁻¹ s⁻¹ and 121000 M⁻¹ s⁻¹
same,kon,[2],213000 M⁻¹ s⁻¹ and 160000 M⁻¹ s⁻¹ and 142000 M⁻¹ s⁻¹
same,kon,[3],179000 M⁻¹ s⁻¹ and 144000 M⁻¹ s⁻¹ and 151000 M⁻¹ s⁻¹
same,kon,[4],121000 M⁻¹ s⁻¹ and 187000 M⁻¹ s⁻¹ and 149000 M⁻¹ s⁻¹
same,kon,[5],115000 M⁻¹ s⁻¹ and 135000 M⁻¹ s⁻¹ and 132000 M⁻¹ s⁻¹
antibody MPE8,kon,[6],36600 M⁻¹ s⁻¹ and 21700 M⁻¹ s⁻¹ and 25100 M⁻¹ s⁻¹
same,kon,[7],14500 M⁻¹ s⁻¹ and 15200 M⁻¹ s⁻¹ and 10900 M⁻¹ s⁻¹
same,kon,[8],40100 M⁻¹ s⁻¹ and 32400 M⁻¹ s⁻¹ and 42100 M⁻¹ s⁻¹
antibody 131-2A,kon,[9],400000 M⁻¹ s⁻¹ and 409000 M⁻¹ s⁻¹ and 485000 M⁻¹ s⁻¹
same,Kd,[3],6.47 nM and 7.43 nM and 11.9 nM
same,koff,[3],0.00031 s⁻¹ and 0.000353 s⁻¹ and 0.0004 s⁻¹
same,kon,[3],47900 M⁻¹ s⁻¹ and 47500 M⁻¹ s⁻¹ and 33700 M⁻¹ s⁻¹
same,Kd,[4],133 nM and 34.4 nM and 17.4 nM
same,kon,[4],8290 M⁻¹ s⁻¹ and 9190 M⁻¹ s⁻¹ and 17600 M⁻¹ s⁻¹
same,kon,[10],522000 M⁻¹ s⁻¹ and 482000 M⁻¹ s⁻¹ and 452000 M⁻¹ s⁻¹
